Test results published in paper PMC5325477, “The single nucleotide variant rs12722489 determines differential estrogen receptor binding and enhancer properties of an IL2RA intronic region”.

B1: IL2RA rs12722489 A, 32 bp (dsDNA)
DNA 1: ACTTATCCAAGGATCTGAGTGGTCTTGGAGGG
DNA 2: CCCTCCAAGACCACTCAGATCCTTGGATAAGT

Key:
[1] = tested on: ERα (endogenous, MT-2 nuclear extract) (human (MT-2 cells)); assay: pull-down (anti-ERα, qPCR); conditions: normalized to 176 bp internal control DNA; EMSA: 10% glycerol, 80 mM KCl, 25 mM NaCl, 15 mM Tris pH 8.0, 0.18 mM EDTA, 1 mM MgCl2, 1.1 mM DTT, 50 uM Na3VO4, 33.3 ug/ml BSA, 150 ug/ml poly-dIdC, 20 min …
[2] = target: ERα (purified recombinant) (human, UniProt P03372 1-595); assay: EMSA; below detection limit; EMSA: 10% glycerol, 80 mM KCl, 25 mM NaCl, 15 mM Tris pH 8.0, 0.18 mM EDTA, 1 mM MgCl2, 1.1 mM DTT, 50 uM Na3VO4, 33.3 ug/ml BSA, 150 ug/ml poly-dIdC, 20 min room temperature, gel at 4 C; pull-down: 60 mM KCl, 12 mM HEPES pH 8.0, 4 mM Tris pH 8.0, 0.5 mM EDTA, 5% glycerol, 1 mM DTT, salmon sperm DNA, on ice, then RIPA buffer, 4 C overnight; conditions: protein: recombinant; chain copies: 2; label: 32P (dATP, Klenow fill-in); blunt after Klenow fill-in (annealed oligos of 26 and 24 nt)
ERα (purified recombinant), sequence (P03372 whole entry): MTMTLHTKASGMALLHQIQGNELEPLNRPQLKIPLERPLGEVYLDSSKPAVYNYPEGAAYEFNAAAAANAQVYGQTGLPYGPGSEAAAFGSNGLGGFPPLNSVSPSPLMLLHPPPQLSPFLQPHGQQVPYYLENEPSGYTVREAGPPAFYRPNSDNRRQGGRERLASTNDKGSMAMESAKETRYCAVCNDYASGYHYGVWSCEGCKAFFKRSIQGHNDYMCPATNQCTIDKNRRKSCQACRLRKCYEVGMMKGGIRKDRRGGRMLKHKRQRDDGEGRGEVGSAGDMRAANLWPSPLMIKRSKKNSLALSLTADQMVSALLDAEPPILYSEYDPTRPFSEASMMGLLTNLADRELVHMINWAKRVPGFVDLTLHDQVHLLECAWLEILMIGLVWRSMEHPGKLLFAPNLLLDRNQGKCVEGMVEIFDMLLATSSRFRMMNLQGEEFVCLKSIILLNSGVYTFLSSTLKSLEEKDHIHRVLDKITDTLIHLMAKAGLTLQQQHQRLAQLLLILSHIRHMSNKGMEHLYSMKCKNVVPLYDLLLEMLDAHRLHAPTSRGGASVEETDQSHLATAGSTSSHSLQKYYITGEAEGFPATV

| Molecule | binding signal (fold vs A variant) [1] | binding result [2] |
| --- | --- | --- |
| IL2RA rs12722489 G, 189 bp PCR | 2 | – |
| B1 | – | no binding |
